The target in data set [1] is T1, PSB‐I^143–238 construct (peptide‐substrate–binding domain of the α‐I subunit of human collagen prolyl … (human, UniProt P13674 160-255)).
T1 construct: numbers count on: the mature protein (α-I subunit after cleavage of the signal peptide); Monomer by SEC-MALS; also called PSB‐I construct; PSB‐I domain; source: E. coli Rosetta(DE3)pLysS, pET22b(+), purified (Ni‐NTA, Superdex75 SEC); not shown: Leu-Glu-His6, C-terminal, kept
The experiment in a line: ITC; 3 mM peptide titrated into 50 μM PSB‐I^143–238 in the cell; 20 mM Bis‐Tris, 100 mM glycine, pH 6.8; 25°C; one‐set‐of‐sites model with fixed stoichiometry (n = 1); three measurements. The following applies: both partners purified. (In general: In ITC the heat of successive injections is recorded.)

Data set [2] concerns the molecule itself. The experiment in a line: crystal structure; PSB‐I^144–244 crystallized without peptide, hanging drop, 4°C; 1 M sodium citrate, 0.1 M CHES, pH 9.5; contact between crystallographically related chains.

This is an account of results in article PMC12433258, “Binding Differences of the Peptide‐Substrate–Binding Domain of Collagen Prolyl 4‐Hydroxylases I and II for Proline‐ and Hydroxyproline‐Rich Peptides” (Proteins, 2025).

T1 sequence (P13674 160-255): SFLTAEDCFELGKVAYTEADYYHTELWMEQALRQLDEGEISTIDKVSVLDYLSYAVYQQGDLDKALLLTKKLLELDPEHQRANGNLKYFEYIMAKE

B1: PPG‐PPG‐PPG peptide (peptide)
peptide: PPGPPGPPG
notes: collagen-like model peptide, 9 residues, free amino and free carboxylate ends; also called (PPG)3; source: synthetic peptide; bought: TAG Copenhagen A/S
The term Kd denotes a measure of binding affinity in units of concentration. Read a low Kd as higher affinity. As for B1, in data set [1], the equilibrium dissociation constant (Kd) is 309 µM and the dH is -13.6 kcal/mol.

B2: PPG‐PAG‐PPG peptide (peptide)
peptide: PPGPAGPPG
notes: collagen-like model peptide, 9 residues, free amino and free carboxylate ends; also called PxGP‐peptide; source: synthetic peptide; bought: TAG Copenhagen A/S
For the molecule B2, in data set [1], the Kd is 91.3 µM and the dH is -12.4 kcal/mol.

B3: PPG‐PRG‐PPG peptide (peptide)
peptide: PPGPRGPPG
notes: as for B2
In data set [1], B3 returned an equilibrium dissociation constant (Kd) of 37 µM and a dH of -14.9 kcal/mol.

B4: PPG‐PEG‐PPG peptide (peptide)
peptide: PPGPEGPPG
notes: as for B2
In data set [1], B4 returned a Kd of 84.3 µM and a dH of -13.2 kcal/mol.

B5: (Pro)9 peptide (peptide)
peptide: PPPPPPPPP
notes: polyproline peptide of 9 residues, free amino and free carboxylate ends; printed as (Pro)9; also called P9; source: synthetic peptide; bought: TAG Copenhagen A/S
In data set [1], B5 yielded a dissociation constant (Kd) of 80.9 µM and a dH of -9.5 kcal/mol.

B6: PSB‐I^144–244 construct (longer PSB‐I construct of human C‐P4H‐I α‐subunit) (domain or fragment)
chain: FLTAEDCFELGKVAYTEADYYHTELWMEQALRQLDEGEISTIDKVSVLDYLSYAVYQQGDLDKALLLTKKLLELDPEHQRANGNLKYFEYIMAKEKDVNKSLEHHHHHH
notes: numbers count on: the mature protein (α-I subunit after cleavage of the signal peptide); C-terminal Leu-Glu-(His)6 tag; The C-terminal Leu-Glu-His6 tag is kept and is written as a part, not under tags; also called longer PSB‐I^144–244 variant
With B6, in data set [2], the binding result is on record as “binds”.
